Results on two molecules are retold here after US20150359843A1 (AGENCY FOR SCIENCE TECHNOLOGY AND RESEARCH, published 2015).

This experiment has as its target T1, p53 wt-FL (human, UniProt P04637 1-393).
T1 construct: mature; Full-length protein made by in vitro transcription/translation, used unpurified in the IVT mixture; also called wild-type full length p53; IVT synthesized p53 wt-FL
Briefly: ELISA conformation 1: biotinylated peptide on streptavidin plate, IVT p53 wt-FL added, detected with DO-1, Bp53 10.1 or CM1 and HRP secondary; ctrl = no p53 extract. A general note: In an ELISA, binding on a coated surface is turned into a signal by an enzyme label.

No end group written: not given here.

T1 sequence (P04637 whole entry): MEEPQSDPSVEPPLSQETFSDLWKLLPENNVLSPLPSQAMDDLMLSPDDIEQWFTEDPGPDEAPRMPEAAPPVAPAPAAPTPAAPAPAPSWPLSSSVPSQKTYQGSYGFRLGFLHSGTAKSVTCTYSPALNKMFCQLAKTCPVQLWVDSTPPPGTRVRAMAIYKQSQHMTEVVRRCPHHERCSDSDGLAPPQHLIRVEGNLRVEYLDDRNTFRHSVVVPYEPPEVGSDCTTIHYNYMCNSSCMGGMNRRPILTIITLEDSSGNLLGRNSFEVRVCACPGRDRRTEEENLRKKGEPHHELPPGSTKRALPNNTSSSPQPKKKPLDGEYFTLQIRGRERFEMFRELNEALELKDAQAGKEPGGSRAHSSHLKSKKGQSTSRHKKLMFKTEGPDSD

For SPTTNH (also: biotin at N- or C-terminus in ELISA forms only, also called peptide SPT; Peptide-P1) [Pap-SPT], the binding result is recorded as “no binding”.

Take MPHLMAC (also: biotin at N- or C-terminus in ELISA forms, also called peptide MPH) [Pap-MPH]: the binding result is “no binding”.
